According to paper PMC4140785:

Key:
[1] = biological target: full-length HIV-1 gp120 from the clade B YU2 strain (HIV-1 (clade B, strain YU2)) (UniProt P35961); assay: SPR
[2] = biological target: CD4-mimetic miniprotein M48U1; assay: SPR

Row | Substance | Kd [1] | koff [1] | kon [1] | Kd [2]
1 | CD4-mimetic miniprotein M48U1 (designed binder) | 0.0154 nM |  |  | 
2 | CD4-mimetic miniprotein M48U7 (designed binder) | 0.18 nM | 0.000446 s⁻¹ | 2.42e+06 M⁻¹ s⁻¹ | 
3 | full-length HIV-1 gp120 from the clade B YU2 strain (from UniProt P35961 32-498) (natural protein) |  |  |  | 0.014 nM
